Laboratory results as given in publication PMC7528686 (Molecules and Cells, 2020).

Biological target: the molecule itself
Test: SEC

B1: CafA (residues 75-287), β-class carbonic anhydrase of Aspergillus fumigatus (enzyme, UniProt A4UTP0 75-287, looked up)
chain: DSLSDKFSAALAKNKEWAAKCSQEHPELLPTLAVGQHPEILWIGCSDSRCPETTILGLLPGDVFTHRNIANVIHPADLSSGAVIEFAVRHLRVKHVVICGHTKCGGVAAALGNKGLGILDPWLIPLRQLREQHLAELQSLSRDEAVVRLAELNVKEGLKALTQKSVVLEAMQERGLQVHGLIYDVGSGFLRQLDAAEPEEALKARLTSFKTDA
  stoichiometry N: 4
